# In the supplement of paper PMC10567573:
# ± gives the standard deviation.
# Test: protein stability index of a GFP-peptide fusion (GPS, HEK-293T) (PSI 1-6); higher = more stable
# Conditions: c terminus: a fixed tail appended
# 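Further: 24-mer peptide tiles fused after GFP, lentivirally expressed, FACS-sorted into six equal bins by GFP/DsRed ratio, decoded by Illumina sequencing, PSI is the read-weighted mean bin number.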
Sequence,protein stability index (treatment: DMSO),"protein stability index (treatment: MLN4924 1 uM, 8 h)"
KFLVGTVGSDPLIKSDEECRDLVD [KLHL20],4.41 ± 0.78,4.14 ± 0.47
RLVESTSLRKAIETVYAAYLPKNT [MLH1],2.2 ± 0.27,–
PKEPAPPNGSAAEPPTEAASREEN [PALM],5.57 ± 0.25,5.37 ± 0.43
DLNGAQIKLREYEAALNSKDAALA [LMNB1],3.5 ± 0.18,3.71 ± 0.39
AIVRKCRQKGTGKEYAAKFIKKRR [DAPK3],3.45 ± 0.24,3.81 ± 0.32
KASALNTKIRALQGSLENMSKLLK [CD207],2.22 ± 0.33,2.26 ± 0.32
MADADEGFGLAHTPLEPDAKDLPC [TBX5],5.24 ± 0.27,5.13 ± 0.22
DLSVEERSFVEKHRWPSNMYLKQL [RHOBTB3],3.01 ± 0.24,2.98 ± 0.18
YPQDLPRPLRSREFPQFEPQRYPA [TRAF3IP2],3.93 ± 0.3,3.6 ± 0.41
RDYPSSRDTRDYAPPPRDYTYRDY [RBMX],2.87 ± 0.38,3.08 ± 0.35
RMGLMKANHVFFLLYLLHILLLDG [FADS1],2.94 ± 0.83,2.68 ± 0.52
RRCGKCFCDRCCSQKVPLRRMCFV [ZFYVE21],2.31 ± 0.45,2.31 ± 0.39
SKLEERFGPDSKSSALACTLPTLP [NCF4],4.04 ± 0.19,4.21 ± 0.17
PKGLDDESKDYLSLYLLLVSCPKS [SPOPL],2.34 ± 0.38,2.95 ± 0.69
DLRVLVSNASEDTRRLRLAHVGME [SCARA5],2.9 ± 0.17,3.15 ± 0.11
ISRDRLSSYYKFKLTREVLSLFVQ [ZER1],2.11 ± 0.52,2.13 ± 0.29
VPGIFCAGADLKERAKMSSSEVGP [AUH],3.59 ± 0.34,3.64 ± 0.29
REQEKKPKKEANQAPKSKSGSRPR [LRRC59],5.41 ± 0.16,5.3 ± 0.23
CLKVGMRREAVQRGRMPPTQPTHG [NR2F2],3.59 ± 0.27,3.71 ± 0.32
LFQIDVYDFMNSAFSPIVILTERV [MIA2],2.75 ± 0.73,3.06 ± 0.91
QSHISDMSVILSMDNNRNLDLDSI [KRT71],3.87 ± 0.4,3.72 ± 0.35
ARKGKGAFCNGQKLQVSQQEDITK [IMPA1],4.46 ± 0.18,4.67 ± 0.18
PPLWAASAAGHLKVVQSLLNHGAS [FEM1C],2.58 ± 0.43,2.76 ± 0.23
